In PMC8189181:

Target: Fzd1-mApple
Assay: quasi-PIE fluorescence cross-correlation spectroscopy (FCCS); live zebrafish embryos co-expressing the EGFP- and mApple-tagged proteins; dorsal cerebellum and midbrain hindbrain boundary; room temperature; FLCS-based statistical filtering of spectral cross talk; apparent Kd

Kd: 313 nM
Substance: Wnt3C80A-EGFP (ligand)
